Experimental data: patent US20230257470A1 (published 2023)
Residue numbers refer to the chain shown, from its start. Names may count otherwise. Values belong to the binder of their own block, whether it stands above or below them.

Experiments:
Experiment in all cases: SPR (Biacore), FcγR over captured antibody; binding amount divided by that of IL6R-BF648/IL6R-L x 100
human FcγRIa = target: T1, human FcγRIa (human, UniProt P12314 16-292, limits assumed)
T1 construct: also called FcgRIa; FcγRI (CD64)
Description: (§1) According to the following method, relative binding activities were calculated for the results of analyzing interactions with the respective FcγRs.

human FcγRIIa type R = target: T2, human FcγRIIa type R (human, UniProt P12318 36-217)
T2 construct: also called FcgRIIaR; FcγRIIa(R)
T2 chain: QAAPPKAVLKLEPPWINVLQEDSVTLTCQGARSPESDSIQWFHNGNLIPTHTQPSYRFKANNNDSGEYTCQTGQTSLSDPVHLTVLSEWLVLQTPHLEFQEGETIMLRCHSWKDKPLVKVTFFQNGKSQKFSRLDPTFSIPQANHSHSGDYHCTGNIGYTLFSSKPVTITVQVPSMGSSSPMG
Description: as §1

human FcγRIIa type H = target: T3, human FcγRIIa type H (human, UniProt P12318 36-217)
T3 construct: also called FcgRIIaH; FcγRIIa(H)
T3 sequence: T2 chain with R133H
Description: as §1

human FcγRIIb = target: T4, human FcγRIIb (human, UniProt P31994 43-217, limits assumed)
T4 construct: also called FcgRIIb; FcγIIB
T4 sequence: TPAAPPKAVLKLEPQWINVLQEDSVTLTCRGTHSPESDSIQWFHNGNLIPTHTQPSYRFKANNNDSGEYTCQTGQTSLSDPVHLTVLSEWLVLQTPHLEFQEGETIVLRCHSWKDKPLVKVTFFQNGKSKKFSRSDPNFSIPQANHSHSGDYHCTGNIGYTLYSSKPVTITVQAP
Description: as §1

human FcγRIIIa type V = target: T5, human FcγRIIIa type V (human, UniProt P08637 17-208, limits assumed)
T5 construct: also called FcgRIIIaV; FcγRIIIa(V)
T5 sequence (P08637 other isoform, or with tags, fused parts or gaps limits assumed): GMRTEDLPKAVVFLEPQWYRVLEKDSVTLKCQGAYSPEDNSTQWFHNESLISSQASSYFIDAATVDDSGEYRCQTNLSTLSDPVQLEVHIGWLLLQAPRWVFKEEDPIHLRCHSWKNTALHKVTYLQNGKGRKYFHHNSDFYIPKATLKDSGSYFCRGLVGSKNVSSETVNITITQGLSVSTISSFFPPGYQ
Description: as §1

T1 sequence (P12314 16-292 limits assumed): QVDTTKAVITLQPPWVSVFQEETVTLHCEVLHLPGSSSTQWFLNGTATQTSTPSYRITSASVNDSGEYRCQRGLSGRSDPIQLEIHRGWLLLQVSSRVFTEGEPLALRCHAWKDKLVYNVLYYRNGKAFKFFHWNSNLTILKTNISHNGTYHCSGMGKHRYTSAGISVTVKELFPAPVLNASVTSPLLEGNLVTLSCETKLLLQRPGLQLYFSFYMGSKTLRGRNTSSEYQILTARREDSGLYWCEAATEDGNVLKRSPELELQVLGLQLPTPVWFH

B1: IL6R-BP082/IL6R-L (antibody, human IgG1, name in EU numbering)
heavy: QVQLQESGPGLVKPSETLSLTCAVSGHSISHDHAWSWVRQPPGEGLEWIGFISYSGITNYNPSLQGRVTISRDNSKNTLYLQMNSLRAEDTAVYYCARSLARTTAMDYWGEGTLVTVSSASTKGPSVFPLAPSSKSTSGGTAALGCLVKDYFPEPVTVSWNSGALTSGVHTFPAVLQSSGLYSLSSVVTVPSSSLGTQTYICNVNHKPSNTKVDKKVEPKSCDKTHTCPPCPAPDLLGGDSVFLFPPKPKDTLMISRTPEVTCVVVDVSHEDPEVKFNWYVDGVEVHNAKTKPREEQYNSTYRVVSVLTVLHQDWLNGKEYKCKVSNKALPKPIEKTISKAKGQPREPQVYTLPPSRDELTKNQVSLTCLVKGFYPSDIAVEWESNGQPENNYKTTPPVLDSDGSFFLYSKLTVDKSRWQQGNVFSCSVMHEALHNHYTQESLSLSP
light: DIQMTQSPSSLSASVGDRVTITCRASQDISSYLNWYQQKPGKAPKLLIYYTSRLHSGVPSRFSGSGSGTDFTFTISSLQPEDIATYYCQQGNTLPYTFGQGTKVEIK
notes: copies: 2 + 2
relative binding activity (human FcγRIa): 74 relative (IL6R-BF648/IL6R-L = 100) | relative binding activity (human FcγRIIa type R): 126 relative (IL6R-BF648/IL6R-L = 100) | relative binding activity (human FcγRIIa type H): 106 relative (IL6R-BF648/IL6R-L = 100) | relative binding activity (human FcγRIIb): 136 relative (IL6R-BF648/IL6R-L = 100) | relative binding activity (human FcγRIIIa type V): 87 relative (IL6R-BF648/IL6R-L = 100)

B2: IL6R-2B261/IL6R-L (antibody, human IgG1, name in EU numbering)
heavy: B1 heavy with Y298D, K332A
light: B1 light
notes: copies: 2 + 2
relative binding activity (human FcγRIa): 100 relative (IL6R-BF648/IL6R-L = 100) | relative binding activity (human FcγRIIa type R): 94 relative (IL6R-BF648/IL6R-L = 100) | relative binding activity (human FcγRIIa type H): 91 relative (IL6R-BF648/IL6R-L = 100) | relative binding activity (human FcγRIIb): 115 relative (IL6R-BF648/IL6R-L = 100) | relative binding activity (human FcγRIIIa type V): 87 relative (IL6R-BF648/IL6R-L = 100)

B3: IL6R-BF648/IL6R-L (antibody, human IgG1, name in EU numbering)
heavy: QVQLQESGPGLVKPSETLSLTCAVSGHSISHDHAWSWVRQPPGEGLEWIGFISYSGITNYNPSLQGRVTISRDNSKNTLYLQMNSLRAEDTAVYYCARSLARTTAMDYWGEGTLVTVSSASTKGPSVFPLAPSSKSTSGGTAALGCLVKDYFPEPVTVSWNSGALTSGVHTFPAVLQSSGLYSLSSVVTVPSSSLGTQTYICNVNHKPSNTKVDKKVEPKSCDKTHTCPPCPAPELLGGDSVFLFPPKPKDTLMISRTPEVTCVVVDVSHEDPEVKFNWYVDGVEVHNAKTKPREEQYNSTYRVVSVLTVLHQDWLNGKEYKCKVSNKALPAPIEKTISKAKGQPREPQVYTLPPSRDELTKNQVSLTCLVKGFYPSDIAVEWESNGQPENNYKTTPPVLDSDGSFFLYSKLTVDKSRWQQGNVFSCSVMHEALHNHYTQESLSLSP
light: B1 light
notes: copies: 2 + 2
relative binding activity (human FcγRIa): 100 relative (IL6R-BF648/IL6R-L = 100) | relative binding activity (human FcγRIIa type R): 100 relative (IL6R-BF648/IL6R-L = 100) | relative binding activity (human FcγRIIa type H): 100 relative (IL6R-BF648/IL6R-L = 100) | relative binding activity (human FcγRIIb): 100 relative (IL6R-BF648/IL6R-L = 100) | relative binding activity (human FcγRIIIa type V): 100 relative (IL6R-BF648/IL6R-L = 100)

B5: IL6R-B3/IL6R-L (antibody, human IgG1)
heavy: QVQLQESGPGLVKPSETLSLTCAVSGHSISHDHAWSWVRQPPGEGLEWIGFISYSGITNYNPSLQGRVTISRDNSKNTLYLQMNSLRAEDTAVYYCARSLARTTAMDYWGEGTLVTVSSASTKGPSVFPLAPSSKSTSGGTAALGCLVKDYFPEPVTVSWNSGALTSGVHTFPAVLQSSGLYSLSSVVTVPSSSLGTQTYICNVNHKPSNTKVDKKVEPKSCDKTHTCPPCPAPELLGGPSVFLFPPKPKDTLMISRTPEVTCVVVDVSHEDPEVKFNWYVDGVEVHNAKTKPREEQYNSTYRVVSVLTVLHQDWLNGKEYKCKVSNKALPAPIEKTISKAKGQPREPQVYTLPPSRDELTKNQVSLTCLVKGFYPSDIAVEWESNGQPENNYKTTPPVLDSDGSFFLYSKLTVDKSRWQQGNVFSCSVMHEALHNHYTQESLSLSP
light: B1 light
notes: IL6R-G1d with K439E (EU numbering); parent polypeptide of the variants; copies: 2 + 2
relative binding activity (human FcγRIa): 145 relative (IL6R-BF648/IL6R-L = 100) | relative binding activity (human FcγRIIa type R): 625 relative (IL6R-BF648/IL6R-L = 100) | relative binding activity (human FcγRIIa type H): 1600 relative (IL6R-BF648/IL6R-L = 100) | relative binding activity (human FcγRIIb): 58 relative (IL6R-BF648/IL6R-L = 100) | relative binding activity (human FcγRIIIa type V): 3260 relative (IL6R-BF648/IL6R-L = 100)

The next lines start with the values.

relative binding activity (human FcγRIIa type R): 191 relative (IL6R-BF648/IL6R-L = 100) | relative binding activity (human FcγRIIa type H): 130 relative (IL6R-BF648/IL6R-L = 100) | relative binding activity (human FcγRIIb): 150 relative (IL6R-BF648/IL6R-L = 100) | relative binding activity (human FcγRIIIa type V): 120 relative (IL6R-BF648/IL6R-L = 100)
B4: IL6R-BP132/IL6R-L (antibody, human IgG1, name in EU numbering)
heavy: B1 heavy with K328A
light: B1 light
notes: copies: 2 + 2

relative binding activity (human FcγRIa): 34 relative (IL6R-BF648/IL6R-L = 100) | relative binding activity (human FcγRIIa type R): 638 relative (IL6R-BF648/IL6R-L = 100) | relative binding activity (human FcγRIIa type H): 548 relative (IL6R-BF648/IL6R-L = 100) | relative binding activity (human FcγRIIb): 178 relative (IL6R-BF648/IL6R-L = 100)
B6: IL6R-BP152/IL6R-L (antibody, human IgG1, name in EU numbering)
heavy: B1 heavy with L236Y, G239D, Y298D, K328A, K332R
light: B1 light
notes: the list runs over r38 and r39; copies: 2 + 2

relative binding activity (human FcγRIa): 50 relative (IL6R-BF648/IL6R-L = 100) | relative binding activity (human FcγRIIa type R): 87 relative (IL6R-BF648/IL6R-L = 100) | relative binding activity (human FcγRIIa type H): 91 relative (IL6R-BF648/IL6R-L = 100) | relative binding activity (human FcγRIIb): 122 relative (IL6R-BF648/IL6R-L = 100) | relative binding activity (human FcγRIIIa type V): 107 relative (IL6R-BF648/IL6R-L = 100)
B7: IL6R-BP083/IL6R-L (antibody, human IgG1, name in EU numbering)
heavy: B1 heavy with D235E, Y298D
light: B1 light
notes: copies: 2 + 2

relative binding activity (human FcγRIa): 19 relative (IL6R-BF648/IL6R-L = 100) | relative binding activity (human FcγRIIa type R): 279 relative (IL6R-BF648/IL6R-L = 100) | relative binding activity (human FcγRIIa type H): 158 relative (IL6R-BF648/IL6R-L = 100) | relative binding activity (human FcγRIIb): 152 relative (IL6R-BF648/IL6R-L = 100) | relative binding activity (human FcγRIIIa type V): 104 relative (IL6R-BF648/IL6R-L = 100)
B8: IL6R-BP085/IL6R-L (antibody, human IgG1, name in EU numbering)
heavy: B1 heavy with D235E, G239D
light: B1 light
notes: copies: 2 + 2

relative binding activity (human FcγRIa): 51 relative (IL6R-BF648/IL6R-L = 100) | relative binding activity (human FcγRIIa type R): 653 relative (IL6R-BF648/IL6R-L = 100) | relative binding activity (human FcγRIIa type H): 259 relative (IL6R-BF648/IL6R-L = 100) | relative binding activity (human FcγRIIb): 179 relative (IL6R-BF648/IL6R-L = 100)
B9: IL6R-BP178/IL6R-L (antibody, human IgG1, name in EU numbering)
heavy: B1 heavy with G239D, P273G
light: B1 light
notes: the list runs over r43 and r44; copies: 2 + 2

relative binding activity (human FcγRIa): 25 relative (IL6R-BF648/IL6R-L = 100) | relative binding activity (human FcγRIIa type R): 377 relative (IL6R-BF648/IL6R-L = 100) | relative binding activity (human FcγRIIa type H): 166 relative (IL6R-BF648/IL6R-L = 100) | relative binding activity (human FcγRIIb): 161 relative (IL6R-BF648/IL6R-L = 100) | relative binding activity (human FcγRIIIa type V): 122 relative (IL6R-BF648/IL6R-L = 100)
B10: IL6R-BP088/IL6R-L (antibody, human IgG1, name in EU numbering)
heavy: B1 heavy with D235E, G239D, K328A
light: B1 light
notes: copies: 2 + 2
